Patent EP4663659A1 (Merck Patent GmbH, dated 2025)

Target: T1, human MUC-1 on cells (human, UniProt P15941 24-1255)
T1 construct: Endogenous on human tumour cell lines and normal kidney and lung cells; also called hMUC-1; mucin 1
Test: flow cytometry with PE-labeled antibody on tumor cell lines, MESF by PE Quantum Beads

T1 sequence (P15941 24-1255 limits assumed): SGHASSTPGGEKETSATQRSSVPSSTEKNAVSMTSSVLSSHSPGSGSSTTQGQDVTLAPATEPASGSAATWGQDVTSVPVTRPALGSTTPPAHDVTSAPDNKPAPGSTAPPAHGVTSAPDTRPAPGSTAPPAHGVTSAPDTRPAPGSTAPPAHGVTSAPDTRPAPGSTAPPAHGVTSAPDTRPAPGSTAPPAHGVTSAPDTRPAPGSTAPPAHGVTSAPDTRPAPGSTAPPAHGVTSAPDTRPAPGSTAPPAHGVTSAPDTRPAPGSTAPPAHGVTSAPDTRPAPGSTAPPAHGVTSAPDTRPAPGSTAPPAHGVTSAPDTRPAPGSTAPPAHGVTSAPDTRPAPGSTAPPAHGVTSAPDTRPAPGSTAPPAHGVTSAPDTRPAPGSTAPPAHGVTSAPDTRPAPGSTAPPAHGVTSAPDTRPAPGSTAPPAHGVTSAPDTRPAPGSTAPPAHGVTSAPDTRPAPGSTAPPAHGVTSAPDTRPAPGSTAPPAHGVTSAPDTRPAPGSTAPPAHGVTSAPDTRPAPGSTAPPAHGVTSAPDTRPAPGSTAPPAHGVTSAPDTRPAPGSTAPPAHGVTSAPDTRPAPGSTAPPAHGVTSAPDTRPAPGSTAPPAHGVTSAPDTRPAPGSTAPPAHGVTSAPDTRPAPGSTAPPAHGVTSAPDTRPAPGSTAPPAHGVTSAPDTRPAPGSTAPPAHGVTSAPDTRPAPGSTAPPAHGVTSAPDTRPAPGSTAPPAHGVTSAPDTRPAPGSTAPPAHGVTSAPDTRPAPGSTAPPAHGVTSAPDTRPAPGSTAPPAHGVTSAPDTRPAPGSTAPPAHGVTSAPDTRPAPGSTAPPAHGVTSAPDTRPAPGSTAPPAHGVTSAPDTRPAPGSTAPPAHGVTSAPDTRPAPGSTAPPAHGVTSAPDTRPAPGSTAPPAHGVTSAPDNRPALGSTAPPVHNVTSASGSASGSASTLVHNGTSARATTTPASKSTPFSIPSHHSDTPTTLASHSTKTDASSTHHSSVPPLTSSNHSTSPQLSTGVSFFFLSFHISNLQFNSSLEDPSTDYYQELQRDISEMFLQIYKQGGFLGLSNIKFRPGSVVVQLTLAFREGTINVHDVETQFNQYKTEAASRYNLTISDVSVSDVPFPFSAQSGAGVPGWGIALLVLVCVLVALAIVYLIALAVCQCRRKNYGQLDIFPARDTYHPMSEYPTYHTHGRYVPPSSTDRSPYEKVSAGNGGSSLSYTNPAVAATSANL

B1: anti-MUC-1 (D11-28) antibody, PE-labeled (antibody, human IgG1, lambda, L234A L235A, V domains shown)
VH: EVQLVQSGAEVKKPGASVKVSCKASGYSFTGHYMHWVRQAPGQGLEWMGWIDPVTGGTKYAQKFQGWVTMTRDTSISTAYMELSRLRSDDTAVYYCAREVTGDRGQFDKWGQGTLVTVSS
VL: SYVLTQPPSVSVAPGKTARITCGGNNIGSKSVHWYQQKPGQAPVLVIYYGSNRPSGIPERFSGSNSGNTATLTISRVEAGDEADYYCQVWDSSSDWVFGGGTKLTVLG
modifications: PE (phycoerythrin) label, site not stated
notes: also called anti-MUC-1 antibody clone (D11-28); anti-MUC-1 PE antibody
binding result: binds
